Data from the supplement of paper PMC5998384.

Assays:
[1] = tested on: HeLa Kyoto; assay: thermal stability score vs G1/S (z-score of summed log2 fold changes over temperatures); higher = more thermally stable than in G1/S
[2] = tested on: HeLa Kyoto; assay: solubility in G1/S (NP-40 vs SDS abundance) (log2 ratio); higher = more soluble; conditions: cell cycle stage: G1/S
[3] = tested on: HeLa Kyoto; assay: melting temperature (median over replicates), in situ; higher = more thermally stable
[4] = tested on: HeLa Kyoto; assay: solubility change mitosis vs G1/S (difference of NP-40 vs SDS log2 ratios) (log2 ratio difference); higher = more soluble in mitosis
[5] = cell cycle stage: early G1 (4.5 h after nocodazole release)
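For melting temperature (median over replicates), in situ in this document: HeLa Kyoto cells synchronized by double thymidine or nocodazole block, proteins quantified by TMT10plex mass spectrometry, three independent biological replicates.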
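For solubility change mitosis vs G1/S (difference of NP-40 vs SDS log2 ratios) in this document: synchronized HeLa Kyoto cells (double thymidine block for G1/S, nocodazole release for mitosis), protein amounts in NP-40 versus SDS lysates quantified by mass spectrometry, three biological replicates.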
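For solubility in G1/S (NP-40 vs SDS abundance) in this document: HeLa Kyoto cells arrested at G1/S by double thymidine block, proteins quantified by TMT10plex mass spectrometry in mild NP-40 versus SDS extracts, three biological replicates.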
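For thermal stability score vs G1/S (z-score of summed log2 fold changes over temperatures) in this document: synchronized HeLa Kyoto cells, proteins quantified by TMT10plex mass spectrometry, three biological replicates, mitosis taken 0.5 h after nocodazole release, G1/S directly after double thymidine block.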

| Sequence | thermal stability score [1, 5] | thermal stability score ([1]; cell cycle stage: mitosis) | solubility in G1/S (log2) [2] | melting temperature ([3]; cell cycle stage: G1/S) [°C] | melting temperature ([3]; cell cycle stage: mitosis) [°C] | solubility change mitosis (log2) [4] |
| --- | --- | --- | --- | --- | --- | --- |
| MATANFGKIQIGIYVEIKRSDGRIHQAMVTSLNEDNESVTVEWIENGDTKGKEIDLESIFSLNPDLVPDEEIEPSPETPPPPASSAKVNKIVKNRRTVASIKNDPPSRDNRVVGSARARPSQFPEQSSSAQQNGSVSDISPVQAAKKEFGPPSRRKSNCVKEVEKLQEKREKRRLQQQELREKRAQDVDATNPNYEIMCMIRDFRGSLDYRPLTTADPIDEHRICVCVRKRPLNKKETQMKDLDVITIPSKDVVMVHEPKQKVDLTRYLENQTFRFDYAFDDSAPNEMVYRFTARPLVETIFERGMATCFAYGQTGSGKTHTMGGDFSGKNQDCSKGIYALAARDVFLMLKKPNYKKLELQVYATFFEIYSGKVFDLLNRKTKLRVLEDGKQQVQVVGLQEREVKCVEDVLKLIDIGNSCRTSGQTSANAHSSRSHAVFQIILRRKGKLHGKFSLIDLAGNERGADTSSADRQTRLEGAEINKSLLALKECIRALGRNKPHTPFRASKLTQVLRDSFIGENSRTCMIATISPGMASCENTLNTLRYANRVKELTVDPTAAGDVRPIMHHPPNQIDDLETQWGVGSSPQRDDLKLLCEQNEEEVSPQLFTFHEAVSQMVEMEEQVVEDHRAVFQESIRWLEDEKALLEMTEEVDYDVDSYATQLEAILEQKIDILTELRDKVKSFRAALQEEEQASKQINPKRPRAL [KIF2A] | 1.7 | 1.64 | -0.149 | 50 | 50.1 | -0.0102 |
| MATATEQWVLVEMVQALYEAPAYHLILEGILILWIIRLLFSKTYKLQERSDLTVKEKEELIEEWQPEPLVPPVPKDHPALNYNIVSGPPSHKTVVNGKECINFASFNFLGLLDNPRVKAAALASLKKYGVGTCGPRGFYGTFDVHLDLEDRLAKFMKTEEAIIYSYGFATIASAIPAYSKRGDIVFVDRAACFAIQKGLQASRSDIKLFKHNDMADLERLLKEQEIEDQKNPRKARVTRRFIVVEGLYMNTGTICPLPELVKLKYKYKARIFLEESLSFGVLGEHGRGVTEHYGINIDDIDLISANMENALASIGGFCCGRSFVIDHQRLSGQGYCFSASLPPLLAAAAIEALNIMEENPGIFAVLKEKCGQIHKALQGISGLKVVGESLSPAFHLQLEESTGSREQDVRLLQEIVDQCMNRSIALTQARYLEKEEKCLPPPSIRVVVTVEQTEEELERAASTIKEVAQAVLL [SPTLC1] | 0.272 | -0.0699 | -0.0163 | 51.5 | 52 | -0.06 |
| MATATIALQVNGQQGGGSEPAAAAAVVAAGDKWKPPQGTDSIKMENGQSTAAKLGLPPLTPEQQEALQKAKKYAMEQSIKSVLVKQTIAHQQQQLTNLQMAAVTMGFGDPLSPLQSMAAQRQRALAIMCRVYVGSIYYELGEDTIRQAFAPFGPIKSIDMSWDSVTMKHKGFAFVEYEVPEAAQLALEQMNSVMLGGRNIKVGRPSNIGQAQPIIDQLAEEARAFNRIYVASVHQDLSDDDIKSVFEAFGKIKSCTLARDPTTGKHKGYGFIEYEKAQSSQDAVSSMNLFDLGGQYLRVGKAVTPPMPLLTPATPGGLPPAAAVAAAAATAKITAQEAVAGAAVLGTLGTPGLVSPALTLAQPLGTLPQAVMAAQAPGVITGVTPARPPIPVTIPSVGVVNPILASPPTLGLLEPKKEKEEEELFPESERPEMLSEQEHMSISGSSARHMVMQKLLRKQESTVMVLRNMVDPKDIDDDLEGEVTEECGKFGAVNRVIIYQEKQGEEEDAEIIVKIFVEFSIASETHKAIQALNGRWFAGRKVVAEVYDQERFDNSDLSA [PUF60] | 1.71 | 5.96 | 0.0524 | 49.1 | 50.6 | 0.0253 |
| MATCIWLRSCGARRLGSTFPGCRLRPRAGGLVPASGPAPGPAQLRCYAGRLAGLSAALLRTDSFVGGRWLPAAATFPVQDPASGAALGMVADCGVREARAAVRAAYEAFCRWREVSAKERSSLLRKWYNLMIQNKDDLARIITAESGKPLKEAHGEILYSAFFLEWFSEEARRVYGDIIHTPAKDRRALVLKQPIGVAAVITPWNFPSAMITRKVGAALAAGCTVVVKPAEDTPFSALALAELASQAGIPSGVYNVIPCSRKNAKEVGEAICTDPLVSKISFTGSTTTGKILLHHAANSVKRVSMELGGLAPFIVFDSANVDQAVAGAMASKFRNTGQTCVCSNQFLVQRGIHDAFVKAFAEAMKKNLRVGNGFEEGTTQGPLINEKAVEKVEKQVNDAVSKGATVVTGGKRHQLGKNFFEPTLLCNVTQDMLCTHEETFGPLAPVIKFDTEEEAIAIANAADVGLAGYFYSQDPAQIWRVAEQLEVGMVGVNEGLISSVECPFGGVKQSGLGREGSKYGIDEYLELKYVCYGGL [ALDH5A1] | 1.08 | 0.0757 | 0.125 | 56.1 | 54.8 | -0.0409 |
| MATDTSQGELVHPKALPLIVGAQLIHADKLGEKVEDSTMPIRRTVNSTRETPPKSKLAEGEEEKPEPDISSEESVSTVEEQENETPPATSSEAEQPKGEPENEEKEENKSSEETKKDEKDQSKEKEKKVKKTIPSWATLSASQLARAQKQTPMASSPRPKMDAILTEAIKACFQKSGASVVAIRKYIIHKYPSLELERRGYLLKQALKRELNRGVIKQVKGKGASGSFVVVQKSRKTPQKSRNRKNRSSAVDPEPQVKLEDVLPLAFTRLCEPKEASYSLIRKYVSQYYPKLRVDIRPQLLKNALQRAVERGQLEQITGKGASGTFQLKKSGEKPLLGGSLMEYAILSAIAAMNEPKTCSTTALKKYVLENHPGTNSNYQMHLLKKTLQKCEKNGWMEQISGKGFSGTFQLCFPYYPSPGVLFPKKEPDDSRDEDEDEDESSEEDSEDEEPPPKRRLQKKTPAKSPGKAASVKQRGSKPAPKVSAAQRGKARPLPKKAPPKAKTPAKKTRPSSTVIKKPSGGSSKKPATSARKEVKLPGKGKSTMKKSFRVKK [HP1BP3] | 0.824 | 0.423 | -1.01 | 51.8 | 51.5 | 0.474 |
| MATKIDKEACRAAYNLVRDDGSAVIWVTFKYDGSTIVPGEQGAEYQHFIQQCTDDVRLFAFVRFTTGDAMSKRSKFALITWIGENVSGLQRAKTGTDKTLVKEVVQNFAKEFVISDRKELEEDFIKSELKKAGGANYDAQTE [COTL1] | 3.44 | 1.43 | 0.108 | 52.4 | 52.8 | 0.0356 |
